From PMC13079917 (2026)
Where “and” joins values, the source holds several entries; their conditions need not be identical. Equal entries are not always repeated. Where two headings read alike, the source gives them in different places.

B1: SES-2 (single epitope scaffold 2) (designed binder)
chain: AVEDALKKAEAAGDEAAIARAEILLARVEEAREILANPNVDPAVGWALLAAVAPEIAALAGGSY
B2: L9 Fab (Fab, V domains shown)
VH: QVKLVESGGGVVQPGRSLRLSCEASGFIFSTYGMHWVRQAPGKGLEWVAVIWFDGSNIYYADSVKGRFTISRDNSKNTVFMQMDSLRAEDTAVYYCHRNFYDGSGPFDYWGQGTLVTVSS
VL: DIQMTQSPSTLSASVGDRVTITCRASQFISRWLAWYQQKPGKAPKLLIYKASSLESGVPSRFSGSGSETHFTLTISSLQPDDVATYYCQEYTSYGRTFGQGTKVEIK

Columns and labels:
Assay in all cases: SPR
L9 Fab [1] = target: B2
L9 Fab [2] = target: B2; remark: listed apart in the source
SES-1 [3] = target: SES-1
SES-1 [4] = target: SES-1; remark: listed apart in the source

Binder | koff (L9 Fab [1]) | Kd (L9 Fab [2]) | Kd (SES-1 [3]) | Kd (SES-1 [4])
B1 | 0.014 s⁻¹ | 42 nM |  | 
B2 |  |  | 78 nM | 78 nM and 84 nM
